Measurements reported in patent US20030021776.

Columns and labels:
[1] = test system: VG10A/8A-VP16 (synthetic); assay: cell_activity; conditions: mouse VEGF promoter reporter activation in mouse cells
HP38 4A (synthetic) = assay: EMSA
[2] = test system: VG 8A (VZ-475) (synthetic); assay: EMSA
SAN 16A (synthetic) = assay: EMSA
[3] = target: VEGF 1 (VZ-8) (synthetic) (UniProt P08047); assay: EMSA
VEGF 1* (synthetic) = VEGF 1* (synthetic) (UniProt P08047); assay: EMSA
VEGF 1A (synthetic) = VEGF 1A (synthetic) (UniProt P08047); assay: EMSA
RAT 24A (synthetic) = assay: EMSA
[4] = target: ZEN-7A 1 (VZ-573) (synthetic) (UniProt P08047); assay: EMSA
EP10A (synthetic) = assay: EMSA
VEGF 1D (synthetic) = VEGF 1D (synthetic) (UniProt P08047); assay: EMSA
[5] = test system: PDF 5A (VZ+590) (synthetic); assay: EMSA
HBV 3 (synthetic) = HBV 3 (synthetic) (UniProt P08047); assay: EMSA
GATA82Z678 (synthetic) = assay: EMSA
[6] = test system: mVZ+57 (VG10A/8A, MVG) (synthetic); assay: EMSA; conditions: text printed as Kds of 0.031 nM for the designed ZFPs; 100 mM KCl, 1 mM MgCl2, Zn
[7] = test system: HUM 17A (VZ+472) (synthetic); assay: EMSA; conditions: F3 printed RSDNLTZ, listing RSDNLTQ
VEGF 1C (synthetic) = VEGF 1C (synthetic) (UniProt P08047); assay: EMSA
[8] = test system: VOP 30A-4 (VZ+42/+530, mVZ+509) (synthetic); assay: EMSA; conditions: 170 mM KCl, 1.7 mM MgCl2, Zn
Chain of VOP 30A-4 (VZ+42/+530, mVZ+509) (synthetic) (chain, as listed by the source): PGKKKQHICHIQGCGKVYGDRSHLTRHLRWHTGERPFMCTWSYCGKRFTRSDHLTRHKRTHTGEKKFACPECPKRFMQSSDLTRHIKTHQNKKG

Chain of SAN 16A (synthetic) (chain, as listed by the source): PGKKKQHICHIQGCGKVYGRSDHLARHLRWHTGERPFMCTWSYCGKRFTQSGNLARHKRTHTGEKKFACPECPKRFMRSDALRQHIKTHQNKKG
Chain of EP10A (synthetic) (chain, as listed by the source): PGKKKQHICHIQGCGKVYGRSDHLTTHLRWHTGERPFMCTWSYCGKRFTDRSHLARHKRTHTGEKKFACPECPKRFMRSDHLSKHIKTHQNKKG
Chain of RAT 24A (synthetic) (chain, as listed by the source): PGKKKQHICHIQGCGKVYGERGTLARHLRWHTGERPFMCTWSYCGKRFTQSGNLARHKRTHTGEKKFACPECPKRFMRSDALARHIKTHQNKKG
Chain of VG 8A (VZ-475) (synthetic) (chain, as listed by the source): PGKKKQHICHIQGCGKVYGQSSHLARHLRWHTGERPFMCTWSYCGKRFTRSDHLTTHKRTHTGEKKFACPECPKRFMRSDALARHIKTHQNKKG
Chain of PDF 5A (VZ+590) (synthetic) (chain, as listed by the source): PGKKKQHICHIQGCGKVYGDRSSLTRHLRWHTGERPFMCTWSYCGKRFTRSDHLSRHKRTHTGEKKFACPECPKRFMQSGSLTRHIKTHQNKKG
Chain of HUM 17A (VZ+472) (synthetic) (chain, as listed by the source): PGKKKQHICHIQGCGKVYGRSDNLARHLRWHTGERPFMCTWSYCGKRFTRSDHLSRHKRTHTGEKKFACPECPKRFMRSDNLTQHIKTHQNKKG
Chain of HP38 4A (synthetic) (chain, as listed by the source): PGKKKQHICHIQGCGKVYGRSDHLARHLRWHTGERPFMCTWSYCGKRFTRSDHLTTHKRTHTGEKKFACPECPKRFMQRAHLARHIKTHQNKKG
Chain of GATA82Z678 (synthetic) (chain, as listed by the source): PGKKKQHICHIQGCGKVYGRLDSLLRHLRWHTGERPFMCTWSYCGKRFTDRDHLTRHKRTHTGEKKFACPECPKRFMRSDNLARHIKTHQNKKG

**Q.** With “TGAGCGGCGGCAGCGGAG (double strand) [VG10A/8A target]” as the sequence, how does the activity [1] read?
**A.** The activity was 29 fold.

**Q.** “GGDTGGGGG (double strand) [HP38 4A target]” was tested. Which Kd (HP38 4A (synthetic)) did it give?
**A.** Its Kd is 0.74 nM.

**Q.** How did the Kd [2] turn out when “GDGTGGGGN (double strand) [VG 8A target]” was run?
**A.** The Kd was 0.35 nM.

**Q.** For “AKGGAAGGG (double strand) [SAN 16A target]”, which Kd (SAN 16A (synthetic)) is on record?
**A.** The Kd was 1.03 nM.

**Q.** “GGGGAGGVK (double strand) [VEGF 1 / 1* / 1A target]” was tested. Which Kd [3] did it give?
**A.** The Kd was 2.83 nM.

**Q.** What about the Kd (VEGF 1* (synthetic)) of the same sequence?
**A.** The Kd was 3 nM.

**Q.** And the Kd (VEGF 1A (synthetic))?
**A.** Its Kd is 0.2 nM.

**Q.** With “GDGGAAGHC (double strand) [RAT 24A target]” as the sequence, how does the Kd (RAT 24A (synthetic)) read?
**A.** Its Kd is under 0.02 nM.

**Q.** Which Kd [4] does the source give for “GGGGGHGCT (double strand) [ZEN-7A 1 target]” here?
**A.** Its Kd is 0.63 nM.

**Q.** Which Kd (EP10A (synthetic)) does the source give for “KGGGGCTGG (double strand) [EP10A target]” here?
**A.** Its Kd is 0.35 nM.

**Q.** “GGGGAGGMT (double strand) [VEGF 1D target]” was tested. Which Kd (VEGF 1D (synthetic)) did it give?
**A.** The Kd was 2 nM.

**Q.** Which Kd [5] does the source give for “GYAGGGGCC (double strand) [PDF 5A target]” here?
**A.** Its Kd is 0.23 nM.

**Q.** For “GGGGGAGGW (double strand) [HBV 3 target]”, which Kd (HBV 3 (synthetic)) is on record?
**A.** The Kd was 30 nM.

**Q.** “GAGKGKGYG (double strand) [GATA82Z678 target]” was tested. Which Kd (GATA82Z678 (synthetic)) did it give?
**A.** Its Kd is 1.8 nM.

**Q.** “TGAGCGGCGGCAGCGGAGC (double strand) [mVZ+57 target]” was tested. Which Kd [6] did it give?
**A.** The Kd was under 0.031 nM.

**Q.** “ARGGGGGAG (double strand) [HUM 17A target]” was tested. Which Kd [7] did it give?
**A.** The Kd was under 0.02 nM.

**Q.** “GGGGVGGAT (double strand) [VEGF 1C target]” was tested. Which Kd (VEGF 1C (synthetic)) did it give?
**A.** Its Kd is 1 nM.

**Q.** Which Kd [8] does the source give for “GCTGGGGGCK (double strand) [VZ+42/+530 target]” here?
**A.** Its Kd is under 0.02 nM.
